The text below walks through data of patent US20230031980A1 (SHANGHAI NINTH PEOPLE S HOSPITAL SHANGHAI JIAO TONG …, published 2023).

Sequences and labels used below:
B1: mutant SAGE1I3BD (other)
chain: AMAKKINDDIKYQLAKEVRRAGANYERIFILLEEVQGSMKVKRQFVEFTIKEAAAAAKVVLIQQLEKALKEIDSHCHLRKVKHMRKR
notes: also called mutant SAGE1I3BD (alanine substitutions of six key interface residues)
B2: SAGE1 (Sarcoma antigen 1), full-length protein in cells (other)
chain: MQASPLQTSQPTPPEELHAAAYVFTNDGQQMRSDEVNLVATGHQSKKKHSRKSKRHSSSKRRKSMSSWLDKQEDAAVTHSICEERINNGQPVADNVLSTAPPWPDATIAHNIREERMENGQSRTDKVLSTAPPQLVHMAAAGIPSMSTRDLHSTVTHNIREERMENGQPQPDNVLSTGPTGLINMAATPIPAMSARDLYATVTHNVCEQKMENVQPAPDNVLLTLRPRRINMTDTGISPMSTRDPYATITYNVPEEKMEKGQPQPDNILSTASTGLINVAGAGTPAISTNGLYSTVPHNVCEEKMENDQPQPNNVLSTVQPVIIYLTATGIPGMNTRDQYATITHNVCEERVVNNQPLPSNALSTVLPGLAYLATADMPAMSTRDQHATIIHNLREEKKDNSQPTPDNVLSAVTPELINLAGAGIPPMSTRDQYATVNHHVHEARMENGQRKQDNVLSNVLSGLINMAGASIPAMSSRDLYATITHSVREEKMESGKPQTDKVISNDAPQLGHMAAGGIPSMSTKDLYATVTQNVHEERMENNQPQPSYDLSTVLPGLTYLTVAGIPAMSTRDQYATVTHNVHEEKIKNGQAASDNVFSTVPPAFINMAATGVSSMSTRDQYAAVTHNIREEKINNSQPAPGNILSTAPPWLRHMAAAGISSTITRDLYVTATHSVHEEKMTNGQQAPDNSLSTVPPGCINLSGAGISCRSTRDLYATVIHDIQEEEMENDQTPPDGFLSNSDSPELINMTGHCMPPNALDSFSHDFTSLSKDELLYKPDSNEFAVGTKNYSVSAGDPPVTVMSLVETVPNTPQISPAMAKKINDDIKYQLMKEVRRFGQNYERIFILLEEVQGSMKVKRQFVEFTIKEAARFKKVVLIQQLEKALKEIDSHCHLRKVKHMRKR
notes: Endogenous protein in HuTu 80, K562, U2OS and KYSE30 cells (IP-MS); also called endogenous SAGE1; ectopically expressed SAGE1
B3: INIP (INTS3 and NABP interacting protein) (other, UniProt Q9NRY2 2-104, looked up)
chain: AANSSGQGFQNKNRVAILAELDKEKRKLLMQNQSSTNHPGASIALSRPSLNKDFRDHAEQQHIAAQQKAALQHAHAHSSGYFITQDSAFGNLILPVLPRLDPE

The target of assay [1] is T1, INTS3CTD (C-terminal domain of INTS3, residues 572-978) (human, UniProt Q68E01 573-979).
T1 construct: also called INTS3CTD dimer
In words: ITC. The protocol: The equilibrium dissociation constant of the SAGE1I3BD-INTS3CTD interaction was determined using a MicroCal iTC200 calorimeter (Malvern). The binding enthalpy was measured at 16° C. in 25 mM Tris-HCl pH 8.0, 150 mM NaCl and 5 mM MgCl2. Two independent experiments were performed. ITC data were subsequently analyzed and fitted using Origin 7 software (OriginLab).
All statistical tests of experimental results were performed using the GraphPad Prism 7 unless noted. The statistical significance was calculated via unpaired two-tailed Student's t test. The dissociation constants (Kd) in ITC experiments were calculated using the Origin 7 software as mean±standard error from two independent experiments with a single site-specific binding model. The statistical analysis of in vivo experiments data was performed using nonparametric Mann-Whitney test. Results were represented as mean±standard deviation unless noted and p<0.05 was considered statistically significant.
In general terms: In ITC the heat of successive injections is recorded.

Assay [2] concerns the target T2, CBP (CRBP-binding protein) (UniProt Q92793 2-2442, limits assumed).
T2 construct: also called CREBBP
As to the kind of experiment: IP of the endogenous SAGE1 complex with anti-SAGE1 antibody (HuTu 80 and other SAGE1-expressing cancer cell lines), MS. The text has this:
(§1) To gain mechanistic insight into SAGE1 function in tumorigenesis, we performed a proteomic analysis of the endogenous SAGE1 complex pulled down in HuTu 80 cells by an anti-SAGE1 antibody. The complex was resolved by SDS-PAGE, visualized by silver staining, and subjected to MS analysis (FIG. 6A and FIGS. 14A-14D). A number of proteins previously linked to transcriptional regulation were reproducibly identified as high-confidence SAGE1 interactors, including CBP (CRBP-binding protein), TLE (Groucho/Transducin-Like Enhancer of Split) proteins, INTS3 (a component of the Integrator complex) and INTS3-binding partners NABP (Nucleic Acid Binding Protein) and INIP (INTS3 and NABP interacting protein) (FIG. 6B). […] The interactions between SAGE1 and these proteins were further confirmed by co-immunoprecipitation (co-IP) analysis (FIG. 6C and FIG. 6D).
(§2) For IP, 1×10^7 cells were lysed in lysis buffer (20 mM Tris-HCl, 150 mM NaCl, 10% Glycerol, 0.5% TritonX-100, 1 mM EDTA, 1 mM EGTA, pH7.4) supplemented with protease inhibitor cocktail (Sigma-Aldrich, #B14001), incubated in 4° C. for 10 min and sonicated by Bioruptor Plus (Diagenode) (5-10% amplitude/power, ON 5 sec-OFF 5 sec) for 1 min. After centrifugation (14,000 rpm, 15 min, 4° C., 1 mg of supernatants were incubated with 5 μg of rabbit anti-SAGE1 polyclonal antibody (Novus Biologicals, #NBP1-84355, or Abcam, #ab233388) and rabbit anti- […]

Assay [3] deals with INTS3 (integrator complex subunit 3), endogenous full-length protein (human, UniProt Q68E01 2-1043). In words: IP-MS with anti-INTS3 antibody in SAGE1-overexpressing 293T cells. How it is done:
Given that SAGE1I3BD highly resembles INTS6I3BD, it is likely that they interact with INTS3CTD in a mutually exclusive manner. To test this idea, we mixed purified INTS3CTD-INTS6I3BD complex with GST-tagged SAGE1I3BD and conducted a GST-pull-down analysis.
For IP, 1×10^7 cells were lysed in lysis buffer (20 mM Tris-HCl, 150 mM NaCl, 10% Glycerol, 0.5% TritonX-100, 1 mM EDTA, 1 mM EGTA, pH7.4) supplemented with protease inhibitor cocktail (Sigma-Aldrich, #B14001), incubated in 4° C. for 10 min and sonicated by Bioruptor Plus (Diagenode) (5-10% amplitude/power, ON 5 sec-OFF 5 sec) for 1 min. After centrifugation (14,000 rpm, 15 min, 4° C., 1 mg of supernatants were incubated with 5 μg of rabbit anti-SAGE1 polyclonal antibody (Novus Biologicals, #NBP1-84355, or Abcam, #ab233388) and rabbit anti-
INTS3 polyclonal antibody (Novus Biologicals, #NBP1-19091) for 16 hours respectively. Next day, 20 μL of Protein G beads (Millipore, #LSKMAGG02) were added into each tube and incubated for 3 more hours. Then beads were harvested and washed for three times with lysis buffer and eluted by 0.2 M Glycine (pH 2.2).

The target of assay [4] is B2. As to the kind of experiment: IP of the endogenous SAGE1 complex with anti-SAGE1 antibody (HuTu 80 and other SAGE1-expressing cancer cell lines), MS.
Description: as §1, §2

Sequence of INTS3 (integrator complex subunit 3), endogenous full-length protein (Q68E01 2-1043 limits assumed, one chain of several): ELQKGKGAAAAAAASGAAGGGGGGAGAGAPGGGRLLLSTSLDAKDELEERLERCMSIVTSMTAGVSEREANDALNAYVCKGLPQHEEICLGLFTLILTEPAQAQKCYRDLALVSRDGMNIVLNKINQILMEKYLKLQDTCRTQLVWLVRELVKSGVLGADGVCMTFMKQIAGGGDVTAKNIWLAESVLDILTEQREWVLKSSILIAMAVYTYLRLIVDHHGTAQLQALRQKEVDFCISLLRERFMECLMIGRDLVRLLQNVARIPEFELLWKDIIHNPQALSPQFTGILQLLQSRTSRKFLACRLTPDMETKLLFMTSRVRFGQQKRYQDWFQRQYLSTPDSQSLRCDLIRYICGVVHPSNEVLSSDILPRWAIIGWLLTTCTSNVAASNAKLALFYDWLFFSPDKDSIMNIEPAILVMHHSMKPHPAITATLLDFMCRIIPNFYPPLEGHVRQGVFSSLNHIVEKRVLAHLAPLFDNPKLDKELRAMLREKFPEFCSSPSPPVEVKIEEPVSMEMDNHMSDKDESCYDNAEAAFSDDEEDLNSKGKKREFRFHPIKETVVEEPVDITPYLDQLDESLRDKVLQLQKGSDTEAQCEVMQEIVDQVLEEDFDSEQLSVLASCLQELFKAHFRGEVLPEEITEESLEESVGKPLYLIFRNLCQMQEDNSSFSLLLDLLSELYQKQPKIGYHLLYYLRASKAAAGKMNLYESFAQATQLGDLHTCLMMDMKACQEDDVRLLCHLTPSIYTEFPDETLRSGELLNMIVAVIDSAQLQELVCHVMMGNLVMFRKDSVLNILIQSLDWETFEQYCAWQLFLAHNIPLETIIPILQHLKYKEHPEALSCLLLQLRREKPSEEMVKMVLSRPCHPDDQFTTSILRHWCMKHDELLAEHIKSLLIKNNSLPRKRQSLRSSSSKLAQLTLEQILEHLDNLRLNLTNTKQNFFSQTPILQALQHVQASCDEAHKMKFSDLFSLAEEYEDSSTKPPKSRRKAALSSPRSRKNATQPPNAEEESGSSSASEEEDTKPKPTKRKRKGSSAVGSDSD
T2 sequence (Q92793 2-2442 limits assumed): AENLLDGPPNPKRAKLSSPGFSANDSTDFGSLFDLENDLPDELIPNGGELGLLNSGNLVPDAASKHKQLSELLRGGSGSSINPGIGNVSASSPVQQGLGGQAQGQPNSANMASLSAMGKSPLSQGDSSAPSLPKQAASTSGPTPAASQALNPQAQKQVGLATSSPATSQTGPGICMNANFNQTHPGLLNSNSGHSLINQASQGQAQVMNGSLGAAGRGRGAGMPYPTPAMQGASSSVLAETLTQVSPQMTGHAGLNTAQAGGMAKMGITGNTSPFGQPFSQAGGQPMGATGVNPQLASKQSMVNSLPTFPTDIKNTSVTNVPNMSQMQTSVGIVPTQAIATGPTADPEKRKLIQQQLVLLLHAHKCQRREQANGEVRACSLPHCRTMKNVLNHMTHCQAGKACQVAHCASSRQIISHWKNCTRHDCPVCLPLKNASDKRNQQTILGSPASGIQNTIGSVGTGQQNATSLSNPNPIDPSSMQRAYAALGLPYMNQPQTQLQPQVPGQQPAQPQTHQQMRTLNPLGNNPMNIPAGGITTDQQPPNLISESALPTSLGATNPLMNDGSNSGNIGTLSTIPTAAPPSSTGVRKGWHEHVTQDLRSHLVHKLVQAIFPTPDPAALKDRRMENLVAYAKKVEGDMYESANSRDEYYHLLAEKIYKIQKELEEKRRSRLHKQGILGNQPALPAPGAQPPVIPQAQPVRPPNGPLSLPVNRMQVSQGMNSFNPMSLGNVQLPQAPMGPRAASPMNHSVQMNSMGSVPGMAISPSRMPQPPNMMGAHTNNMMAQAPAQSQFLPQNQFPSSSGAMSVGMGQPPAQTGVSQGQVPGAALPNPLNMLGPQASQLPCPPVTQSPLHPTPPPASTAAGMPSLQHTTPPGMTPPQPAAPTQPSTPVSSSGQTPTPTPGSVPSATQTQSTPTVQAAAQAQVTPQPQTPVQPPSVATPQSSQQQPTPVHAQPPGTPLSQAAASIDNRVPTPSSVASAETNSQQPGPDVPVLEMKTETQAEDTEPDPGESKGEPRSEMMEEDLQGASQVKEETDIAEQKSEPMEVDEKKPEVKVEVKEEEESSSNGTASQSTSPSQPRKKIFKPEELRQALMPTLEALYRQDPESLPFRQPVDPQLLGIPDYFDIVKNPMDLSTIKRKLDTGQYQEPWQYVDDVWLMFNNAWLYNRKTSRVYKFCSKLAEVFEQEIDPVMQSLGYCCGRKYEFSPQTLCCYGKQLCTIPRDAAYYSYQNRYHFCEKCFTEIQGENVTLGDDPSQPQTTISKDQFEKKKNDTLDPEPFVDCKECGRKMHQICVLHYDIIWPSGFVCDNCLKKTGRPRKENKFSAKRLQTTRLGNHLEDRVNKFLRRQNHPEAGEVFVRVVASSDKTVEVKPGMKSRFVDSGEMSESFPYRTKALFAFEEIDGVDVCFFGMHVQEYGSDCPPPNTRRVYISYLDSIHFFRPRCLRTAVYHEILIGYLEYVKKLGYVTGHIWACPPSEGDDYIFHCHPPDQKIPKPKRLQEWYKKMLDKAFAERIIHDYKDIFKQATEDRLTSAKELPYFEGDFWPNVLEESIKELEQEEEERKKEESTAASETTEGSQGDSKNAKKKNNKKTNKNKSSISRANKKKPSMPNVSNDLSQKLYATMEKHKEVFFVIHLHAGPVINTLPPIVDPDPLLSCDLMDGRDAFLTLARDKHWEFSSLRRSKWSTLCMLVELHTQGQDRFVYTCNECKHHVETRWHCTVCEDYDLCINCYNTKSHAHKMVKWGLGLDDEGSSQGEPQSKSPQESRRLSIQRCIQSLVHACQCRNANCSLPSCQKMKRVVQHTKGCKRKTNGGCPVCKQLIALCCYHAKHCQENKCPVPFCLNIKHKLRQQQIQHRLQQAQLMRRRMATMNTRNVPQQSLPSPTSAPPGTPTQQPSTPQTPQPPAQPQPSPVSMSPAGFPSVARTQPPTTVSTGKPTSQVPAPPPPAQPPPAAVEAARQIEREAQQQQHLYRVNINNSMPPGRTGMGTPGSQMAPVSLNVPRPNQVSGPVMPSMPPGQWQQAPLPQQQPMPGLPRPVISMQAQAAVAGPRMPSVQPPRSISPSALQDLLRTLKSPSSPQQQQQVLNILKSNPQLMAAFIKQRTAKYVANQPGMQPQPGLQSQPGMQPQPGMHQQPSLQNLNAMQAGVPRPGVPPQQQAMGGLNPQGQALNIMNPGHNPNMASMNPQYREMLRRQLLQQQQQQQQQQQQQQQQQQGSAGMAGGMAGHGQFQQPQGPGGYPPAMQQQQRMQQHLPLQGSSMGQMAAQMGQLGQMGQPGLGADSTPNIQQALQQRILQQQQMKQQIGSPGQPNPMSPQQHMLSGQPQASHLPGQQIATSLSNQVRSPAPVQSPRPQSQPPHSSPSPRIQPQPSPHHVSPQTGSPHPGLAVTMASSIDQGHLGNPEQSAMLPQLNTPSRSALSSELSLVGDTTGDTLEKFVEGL

Take B1: in assay [1], the binding result is reported as “no binding”.
In the case of B2, the binding result in assay [2] and in assay [3] was “binds” each time.
As for B3, in assay [4], the binding result is reported as “binds”.
